Test results published in paper PMC6637204, “Inactivating mutations and X-ray crystal structure of the tumor suppressor OPCML reveal cancer-associated functions” (Nature Communications, 2019).

Key:
[1] = biological target: the molecule itself; test: SAXS; WT OPCML in 50 mM HEPES pH 7.5, 200 mM sodium chloride, 2% glycerol, 0.02% sodium azide; three concentrations merged; fit to dimer and monomer models
[2] = biological target: the molecule itself; test: SEC-MALLS; samples at 1 µg/µL, 1 mL/min in PBS pH 7.4, room temperature
[3] = biological target: the molecule itself; test: SEC; gel filtration; dilutions equilibrated 24 h, 50 µL on Superdex 200 10/30 GL at 0.5 mL/min; peak elution volume against concentration fit to a monomer-dimer equilibrium (dimer to monomers)
[4] = SYPRO Orange thermal shift assay; conditions: glycan lost; control: wild type
[5] = MTS viability, R428 IC50, SKOV3; conditions: glycan lost; control: wild type
[6] = recombinant secretion from insect cells; conditions: glycan lost; control: wild type
[7] = Caspase-Glo 3/7 assay, SKOV3; conditions: glycan lost; control: wild type
gel filtration = conditions: glycan lost; control: wild type
[8] = western blot, transduced SKOV3, PEA1, PEO1; conditions: glycan lost; control: wild type
[9] = immunofluorescence confocal microscopy; conditions: glycan lost; control: wild type
[10] = biological target: the molecule itself; test: SDS-PAGE without heat denaturation, western blot; extracts of transduced cells run without prior heat denaturation, anti-OPCML blot

B1: soluble recombinant wild-type OPCML (residues 36-316, D1-D3) (domain or fragment, human, UniProt Q14982 36-316, looked up)
chain: ATFPKAMDNVTVRQGESATLRCTIDDRVTRVAWLNRSTILYAGNDKWSIDPRVIILVNTPTQYSIMIQNVDVYDEGPYTCSVQTDNHPKTSRVHLIVQVPPQIMNISSDITVNEGSSVTLLCLAIGRPEPTVTWRHLSVKEGQGFVSEDEYLEISDIKRDQSGEYECSALNDVAAPDVRKVKITVNYPPYISKAKNTGVSVGQKGILSCEASAVPMAEFQWFKEETRLATGLDGMRIENKGRMSTLTFFNVSEKDYGNYTCVATNKLGNTNASITLYGPGA
modifications: N-linked glycans modelled at asparagines 70, 293 and 306
notes: OPCML, human, UniProt Q14982, residues 36-316 (D1-D3); also called WT OPCML; rOPCML; source: Hi5 insect cells, baculovirus, secreted; purified (protein A, thrombin digestion, negative protein A, HiTrap Q, SEC); not shown: Fc (human IgG1, UniProt P01857 residues 118-330, joined by ALVPRGS), C-terminal, cleaved
- stoichiometry N [1]: 2

B2: soluble recombinant OPCML P95R (residues 36-316) (domain or fragment, human, UniProt Q14982 36-316, looked up)
chain: ATFPKAMDNVTVRQGESATLRCTIDDRVTRVAWLNRSTILYAGNDKWSIDPRVIILVNTRTQYSIMIQNVDVYDEGPYTCSVQTDNHPKTSRVHLIVQVPPQIMNISSDITVNEGSSVTLLCLAIGRPEPTVTWRHLSVKEGQGFVSEDEYLEISDIKRDQSGEYECSALNDVAAPDVRKVKITVNYPPYISKAKNTGVSVGQKGILSCEASAVPMAEFQWFKEETRLATGLDGMRIENKGRMSTLTFFNVSEKDYGNYTCVATNKLGNTNASITLYGPGA
notes: OPCML, human, UniProt Q14982, residues 36-316 (D1-D3), clinical somatic mutation P95R; Same construct as m1 with P95R; PDB 5UV6 is the wild-type parent; ALVPR probably left at the C-terminus after thrombin (surmised); also called rP95R; source: Hi5 insect cells, baculovirus, secreted; purified (protein A, thrombin digestion, negative protein A, HiTrap Q, SEC); not shown: Fc (human IgG1, UniProt …)
- stoichiometry N [2]: 2

B3: soluble recombinant OPCML R65L (residues 36-316) (domain or fragment, human, UniProt Q14982 36-316, looked up)
chain: ATFPKAMDNVTVRQGESATLRCTIDDRVTLVAWLNRSTILYAGNDKWSIDPRVIILVNTPTQYSIMIQNVDVYDEGPYTCSVQTDNHPKTSRVHLIVQVPPQIMNISSDITVNEGSSVTLLCLAIGRPEPTVTWRHLSVKEGQGFVSEDEYLEISDIKRDQSGEYECSALNDVAAPDVRKVKITVNYPPYISKAKNTGVSVGQKGILSCEASAVPMAEFQWFKEETRLATGLDGMRIENKGRMSTLTFFNVSEKDYGNYTCVATNKLGNTNASITLYGPGA
notes: OPCML, human, UniProt Q14982, residues 36-316 (D1-D3), clinical somatic mutation R65L; Same construct as m1 with R65L; PDB 5UV6 is the wild-type parent; ALVPR probably left at the C-terminus after thrombin (surmised); also called rR65L; source: Hi5 insect cells, baculovirus, secreted; purified (protein A, thrombin digestion, negative protein A, HiTrap Q, SEC); not shown: Fc (human IgG1, UniProt …)
- fold weaker Kd than WT OPCML [3]: ≥ 250 fold

B4: OPCML: N70H (protein)
parent chain: MGVCGYLFLPWKCLVVVSLRLLFLVPTGVPVRSGDATFPKAMDNVTVRQGESATLRCTIDDRVTRVAWLNRSTILYAGNDKWSIDPRVIILVNTPTQYSIMIQNVDVYDEGPYTCSVQTDNHPKTSRVHLIVQVPPQIMNISSDITVNEGSSVTLLCLAIGRPEPTVTWRHLSVKEGQGFVSEDEYLEISDIKRDQSGEYECSALNDVAAPDVRKVKITVNYPPYISKAKNTGVSVGQKGILSCEASAVPMAEFQWFKEETRLATGLDGMRIENKGRMSTLTFFNVSEKDYGNYTCVATNKLGNTNASITLYGPGAVIDGVNSASRALACLWLSGTLLAHFFIKF
- stability_or_folding, Tm [4]: decreases
- other: sensitisation to AXL inhibitor [5]: abolishes
- expression_or_secretion [6]: decreases
- other: R428-induced apoptosis [7]: abolishes
- other: aggregation (gel filtration): increases
- expression_or_secretion [8]: no change
- localisation_or_trafficking [9]: no change

B5: wild-type OPCML expressed in transduced cancer cells (natural protein, human, UniProt Q14982 28-322, looked up)
chain: GVPVRSGDATFPKAMDNVTVRQGESATLRCTIDDRVTRVAWLNRSTILYAGNDKWSIDPRVIILVNTPTQYSIMIQNVDVYDEGPYTCSVQTDNHPKTSRVHLIVQVPPQIMNISSDITVNEGSSVTLLCLAIGRPEPTVTWRHLSVKEGQGFVSEDEYLEISDIKRDQSGEYECSALNDVAAPDVRKVKITVNYPPYISKAKNTGVSVGQKGILSCEASAVPMAEFQWFKEETRLATGLDGMRIENKGRMSTLTFFNVSEKDYGNYTCVATNKLGNTNASITLYGPGAVIDGVN
notes: OPCML, human, WT cDNA from pENTR4 shuttled to pLenti CMV Puro DEST; GPI-anchored, membrane-localized; also called WT OPCML; WT; source: SKOV3, PEA1, PEO1 and HCT116 cells, stably transduced (lentivirus, pLenti CMV Puro DEST); on cells or in lysate
- stoichiometry N [10]: 2
